These results are taken from publication PMC3098285.

The series concerns the target T1, His-PhoP (Salmonella enterica serovar Typhimurium (strain SL1344?)) (UniProt E1WFA1).
T1 sequence: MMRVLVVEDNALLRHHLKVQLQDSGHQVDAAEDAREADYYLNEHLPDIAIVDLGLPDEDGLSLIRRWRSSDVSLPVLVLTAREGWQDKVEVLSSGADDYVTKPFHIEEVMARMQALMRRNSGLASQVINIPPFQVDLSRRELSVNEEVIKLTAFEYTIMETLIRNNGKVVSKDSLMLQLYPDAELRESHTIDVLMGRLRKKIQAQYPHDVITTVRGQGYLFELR
Briefly: EMSA. As to conditions: 20 mM HEPES pH 7.6, 1 mM EDTA, 10 mM (NH4)2SO4, 5 mM DTT, 0.2% Tween 20, 30 mM KCl, 0.1 ug poly-L-lysine, 1 ug poly(dI-dC), 50 mM acetyl phosphate, 37 C ….

In the case of “CGCTCACCTCTTCTGTATATAAGCTGTGAAATTGCGGTATGCTCAATCGGTAAAGTGAATTTACACATATATTCATTTTGCTCTGTTTCCTGGTAAGTGAAAGTAGCGAATATGATGTAATGTATAATT (double strand) [sseL promoter 128-bp fragment]”, the binding result is given as “binds”.
